What was measured:
[1] = molecular target: T1, Human active C1s (Complement Technology) (human, UniProt P09871 16-688); assay: cell-based or functional assay
T1 sequence: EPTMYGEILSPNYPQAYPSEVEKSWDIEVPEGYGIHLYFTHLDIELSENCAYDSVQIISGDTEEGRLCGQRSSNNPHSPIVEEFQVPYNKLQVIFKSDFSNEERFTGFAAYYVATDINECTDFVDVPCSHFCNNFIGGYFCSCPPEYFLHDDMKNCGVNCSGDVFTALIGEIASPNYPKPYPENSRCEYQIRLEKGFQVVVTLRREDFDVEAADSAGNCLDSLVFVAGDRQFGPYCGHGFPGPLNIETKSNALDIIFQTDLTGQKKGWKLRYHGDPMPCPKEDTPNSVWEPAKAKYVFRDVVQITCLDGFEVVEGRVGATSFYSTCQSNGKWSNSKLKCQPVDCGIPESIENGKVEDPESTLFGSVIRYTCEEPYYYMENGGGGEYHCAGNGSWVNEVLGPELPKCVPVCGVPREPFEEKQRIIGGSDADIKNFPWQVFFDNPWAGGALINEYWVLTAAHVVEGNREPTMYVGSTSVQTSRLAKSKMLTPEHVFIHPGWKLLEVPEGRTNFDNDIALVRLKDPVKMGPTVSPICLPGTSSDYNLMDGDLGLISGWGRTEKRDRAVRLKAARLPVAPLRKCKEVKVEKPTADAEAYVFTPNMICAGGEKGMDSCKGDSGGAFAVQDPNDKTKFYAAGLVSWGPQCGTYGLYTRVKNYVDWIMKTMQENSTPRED

[2] = molecular target: T1, Human active C1s (Complement Technology); assay: cell-based or functional assay; remark: listed apart in the source
[3] = molecular target: T2, His-tagged recombinant human TfR (produced in-house) (human, UniProt P02786 89-760); assay: affinity of bispecific purified from CHO cells (SPR; details not restated)
T2 construct: also called hTfR; transferrin receptor 1

[4] = molecular target: T1, Human active C1s (Complement Technology); assay: as above
[5] = molecular target: T3, cynomolgus TfR (cynomolgus, UniProt H9EXL1 89-760 (rhesus entry)); assay: as above
T3 construct: also called Cyno TfR; cTfR

[6] = molecular target: T4, cynomolgus aC1s (cynomolgus, UniProt A0A2K5VQX9 16-685); assay: as above
T4 construct: also called Cyno aC1s; caC1s
T4 sequence: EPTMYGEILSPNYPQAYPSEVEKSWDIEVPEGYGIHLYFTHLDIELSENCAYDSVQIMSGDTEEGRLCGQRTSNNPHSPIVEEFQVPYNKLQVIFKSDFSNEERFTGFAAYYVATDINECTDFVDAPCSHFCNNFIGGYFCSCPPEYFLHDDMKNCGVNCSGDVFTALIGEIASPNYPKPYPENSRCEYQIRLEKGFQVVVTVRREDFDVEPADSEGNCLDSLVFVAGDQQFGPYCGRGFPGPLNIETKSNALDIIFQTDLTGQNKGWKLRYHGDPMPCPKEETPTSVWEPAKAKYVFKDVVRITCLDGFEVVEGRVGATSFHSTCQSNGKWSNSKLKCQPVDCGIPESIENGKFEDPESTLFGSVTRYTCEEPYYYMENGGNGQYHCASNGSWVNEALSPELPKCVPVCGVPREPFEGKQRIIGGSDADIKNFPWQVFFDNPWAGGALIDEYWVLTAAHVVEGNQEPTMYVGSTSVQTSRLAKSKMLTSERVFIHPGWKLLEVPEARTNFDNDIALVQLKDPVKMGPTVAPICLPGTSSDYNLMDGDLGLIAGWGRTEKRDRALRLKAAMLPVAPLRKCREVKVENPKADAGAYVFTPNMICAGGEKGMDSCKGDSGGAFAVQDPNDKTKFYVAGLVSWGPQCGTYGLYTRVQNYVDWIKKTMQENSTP

T3 sequence (chain, as listed by the source): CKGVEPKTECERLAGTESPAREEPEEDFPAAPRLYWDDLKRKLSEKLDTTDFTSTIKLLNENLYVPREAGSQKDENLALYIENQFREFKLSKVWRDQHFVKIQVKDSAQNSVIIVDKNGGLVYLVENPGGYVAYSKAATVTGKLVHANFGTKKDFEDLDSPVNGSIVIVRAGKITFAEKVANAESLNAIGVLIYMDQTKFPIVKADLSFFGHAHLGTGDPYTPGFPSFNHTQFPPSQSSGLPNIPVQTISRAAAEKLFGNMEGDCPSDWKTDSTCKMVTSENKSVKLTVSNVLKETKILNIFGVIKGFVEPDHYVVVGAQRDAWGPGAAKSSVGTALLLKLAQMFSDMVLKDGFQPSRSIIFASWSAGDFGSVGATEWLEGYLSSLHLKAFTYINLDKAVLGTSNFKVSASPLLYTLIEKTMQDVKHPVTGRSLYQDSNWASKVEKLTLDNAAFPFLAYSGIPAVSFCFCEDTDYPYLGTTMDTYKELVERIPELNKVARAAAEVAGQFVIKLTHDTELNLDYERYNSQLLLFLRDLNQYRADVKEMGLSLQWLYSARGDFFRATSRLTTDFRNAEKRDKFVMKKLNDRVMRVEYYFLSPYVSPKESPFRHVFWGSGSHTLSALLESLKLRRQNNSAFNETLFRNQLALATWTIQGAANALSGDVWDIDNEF
T2 sequence (P02786 89-760 limits assumed): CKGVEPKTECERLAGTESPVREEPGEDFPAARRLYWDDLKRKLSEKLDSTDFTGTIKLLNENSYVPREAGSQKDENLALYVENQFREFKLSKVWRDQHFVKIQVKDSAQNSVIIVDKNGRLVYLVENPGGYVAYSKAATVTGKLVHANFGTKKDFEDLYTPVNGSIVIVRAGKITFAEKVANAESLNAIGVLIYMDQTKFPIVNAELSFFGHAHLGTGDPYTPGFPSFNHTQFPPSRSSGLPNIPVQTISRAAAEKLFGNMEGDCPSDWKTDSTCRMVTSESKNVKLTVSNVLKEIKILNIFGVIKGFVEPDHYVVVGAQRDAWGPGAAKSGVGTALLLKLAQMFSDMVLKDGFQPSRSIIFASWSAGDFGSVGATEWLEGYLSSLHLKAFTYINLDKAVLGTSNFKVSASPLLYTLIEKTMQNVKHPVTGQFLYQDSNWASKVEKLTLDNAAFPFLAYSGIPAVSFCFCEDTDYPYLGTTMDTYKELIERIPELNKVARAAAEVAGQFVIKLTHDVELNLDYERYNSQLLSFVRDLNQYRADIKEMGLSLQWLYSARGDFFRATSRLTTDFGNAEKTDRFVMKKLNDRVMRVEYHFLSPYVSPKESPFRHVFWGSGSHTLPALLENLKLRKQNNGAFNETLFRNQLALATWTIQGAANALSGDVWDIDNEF

B1: bispecific anti-aC1s (L4)/anti-TfR (531v25.v6) IgG4 antibody (bispecific antibody)
heavy 1: QVQLVQSGAEVKKPGASVKLSCTASGFNIKDDYIHWVKEAPGQGLEWIGRIDPADGHTKYAPKFQVKVTITADTSTSTAYLELSSLRSEDTAVYYCARYGYGREVFDYWGQGTTVTVSSASTKGPSVFPLAPCSRSTSESTAALGCLVKDYFPEPVTVSWNSGALTSGVHTFPAVLQSSGLYSLSSVVEVPSSSLGTKTYTCNVDHKPSNTKVDERVESDYGPPCPPCPAPEFEGGPSVFLFPPKPKDTLMISRTPEVTCVVVDVSQEDPEVQFNWYVDGVEVHNAKTKPREEQFNSTYRVVSVLTVLHQDWLNGKEYKCKVSNKGLPSSIEKTISKAKGQPREPQVCTLPPSQEEMTKNQVSLSCAVKGFYPSDIAVEWESNGQPENNYKTTPPVLDSDGSFFLVSRLTVDKSRWQEGNVFSCSVLHEALHSRFTQKSLSLSLG
light 1: DIVMTQSPDSLAVSLGERATISCKSSQSVDYEGDSYLNWYQKKPGQPPKLLIYDASNLESGVPDRFSGSGSGTDFTLTISSLQAEDVAVYYCQQSNEDPWTFGQGTKVEIKRTVAAPAVFIFPPSKKQLKSGTASVVCLLKNFYPREAKVQWKVDNALQSGNSQESVTEQDSKDSTYSLSSTLTLSKADYEKHKVYACEVTHQGLSSPVTKSFNRGEC
heavy 2: QVQLVQSGAEVKKPGASVKVSCKASGYTFTRYYLNWVRKAPGQGLEWIGMIDPSVSETHYAQKFQGRATLTVDKSTSTAYMELSSLRSEDTAVYYCSQIRLPYYYAMDSWGQGTTVTVSSASTKGPSVFPLAPCSRSTSESTAALGCLVKDYFPEPVTVSWNSGALTSGVHTFPAVLQSSGLYSLSSVVTVPSSSLGTKTYTCNVDHKPSNTKVDKRVESKYGPPCPPCPAPEFEGGPSVFLFPPKPKDTLMISRTPEVTCVVVDVSQEDPEVQFNWYVDGVEVHNAKTKPREEQFNSTYRVVSVLTVLHQDWLNGKEYKCKVSNKGLPSSIEKTISKAKGQPREPQVYTLPPCQEEMTKNQVSLWCLVKGFYPSDIAVEWESNGQPENNYKTTPPVLDSDGSFFLYSRLTVDKSRWQEGNVFSCSVLHEALHSHYTQKSLSLSLG
light 2: DIQMTQSPSSLSASVGDRVTITCRASQDIESFLNWYQEKPGKAPKLLIYYTSRLQSGVPSRFSGSGSGTDYTLTISSLQPEDFATYYCQQGNTLPRTFGGGTKVEIKRTVAAPSVFIFPPSDEQLKSGTASVVCLLNNFYPREAKVQWKVDNALQSGNSQESVTEQDSKDSTYSLSSTLTLSKADYEKHKVYACEVTHQGLSSPVTKSFNRGEC
notes: Purified from CHO cells; monovalent for aC1s
In the case of B1, the “IC50, C3d deposition on neurons in iPSC tri-cultures with 3% serum” value [1] is reported as 23.5 µg/mL, the “IC50, Wieslab Complement Pathway Assay” value [2] is reported as 1.08 µg/mL and the “IC90, Wieslab Complement Pathway Assay” value [2] is reported as 7.6 µg/mL. For the same binder, the Kd [3] was 28.6 nM, the Kd [4] was 3.31 nM and the Kd [5] was 43.7 nM. It also gave a Kd [6] of 0.248 nM.

Source: patent publication US20250376511A1 (Sanofi, published 2025)
